Assay results from US20260226176A1 (THERANOVIR, published 2026).

Tests used:
[1] = biological target: DNA repair protein complementing XP-C cells (human) (UniProt Q01831); assay: co-IP from CTC41.5E lysate, LC-MS/MS, peak area against isotype IP
[2] = biological target: Poly [ADP-ribose] polymerase 2 (human) (UniProt Q9UGN5); assay: as above
[3] = biological target: Poly [ADP-ribose] polymerase 1 (human) (UniProt P09874); assay: as above
[4] = biological target: DNA mismatch repair protein Msh2 (human) (UniProt P43246); assay: as above
DNA ligase 3 (human) = DNA ligase 3 (human) (UniProt P49916); assay: as above
[5] = biological target: SWI/SNF-related matrix-associated actin-dependent regulator of chromatin subfamily A member 5 (human) (UniProt O60264); assay: as above
[6] = biological target: X-ray repair cross-complementing protein 5 (human) (UniProt P13010); assay: as above
[7] = biological target: DNA-directed RNA polymerase I subunit RPA1 (human) (UniProt O95602); assay: as above
[8] = biological target: Werner syndrome ATP-dependent helicase (human) (UniProt Q14191); assay: as above
[9] = biological target: Sister chromatid cohesion protein PDS5 homolog B (human) (UniProt Q9NTI5); assay: as above
[10] = biological target: DNA topoisomerase 1 (human) (UniProt P11387); assay: as above
[11] = biological target: DNA topoisomerase 2-beta (human) (UniProt Q02880); assay: as above
Histone H2A.Z (human) = Histone H2A.Z (human) (UniProt P0C0S5); assay: as above
[12] = biological target: DNA-dependent protein kinase catalytic subunit (DNA-PK) (human) (UniProt P78527); assay: as above
[13] = biological target: Replication protein A 70 kDa DNA-binding subunit (human) (UniProt P27694); assay: as above
[14] = biological target: FACT complex subunit SPT16 (human) (UniProt Q9Y5B9); assay: as above
[15] = biological target: X-ray repair cross-complementing protein 6 (human) (UniProt P12956); assay: as above
[16] = biological target: UV excision repair protein RAD23 homolog B (human) (UniProt P54727); assay: as above
[17] = biological target: T1, native human NRP-1 on the cell surface (human, UniProt O14786 22-923); assay: flow cytometry, MDA-MB-231 cells, 10 ug/ml, with against without heparinase
T1 construct: whole, on cells; endogenous protein; isoform and glycosaminoglycan state on the cells not defined; also called native NRP-1 on MDA-MB-231 cells; native form of NRP-1 protein on the CTCs cell surface

- Ratio Area V4/IgG4 [1]: 480
- Ratio Area V4/IgG4 [2]: 1
- Ratio Area V4/IgG4 [3]: 709
- Ratio Area V4/IgG4 [4]: 335
- Ratio Area V4/IgG4 (DNA ligase 3 (human)): 7770
- Ratio Area V4/IgG4 [5]: 589
- Ratio Area V4/IgG4 [6]: 38.7
- Ratio Area V4/IgG4 [7]: 785
- Ratio Area V4/IgG4 [8]: 759
- Ratio Area V4/IgG4 [9]: 12.5
- Ratio Area V4/IgG4 [10]: 6880
- Ratio Area V4/IgG4 [11]: 50.1
- Ratio Area V4/IgG4 (Histone H2A.Z (human)): 624
- Ratio Area V4/IgG4 [12]: 10.5
- Ratio Area V4/IgG4 [13]: 13.6
- Ratio Area V4/IgG4 [14]: 5490
- Ratio Area V4/IgG4 [15]: 58.8
- Ratio Area V4/IgG4 [16]: 307
- delta (% of control) [17]: -2.3%
B1: variant 4 of a-NRP1_LEP n° 1 (antibody, V domains shown)
VH: EVQLVESGGGLVQPGGSLRLSCAASGFTFSSFGMHWVRQAPGKGLEWVAYISSGSSTIHYADSVKGRFTISRDNAKNSLYLQMNSLRAEDTAMYYCARRHYGSSRYWYFDVWGQGTTVTVSS
VL: EIVLTQSPATLSLSPGERATLSCRASQSVKSYLAWYQQKPGQAPRLLIYYASSRATGIPARFSGSGSGTDFTLTISSLEPEDFAVYYCQQYSESPYTFGQGTKLEIK
notes: humanized variant of 21B10; isotype control hIgG4; also called variant 4 a-NRP1_LEP; variant n°4 a-NRP1_LEP
